Source: patent publication US20260242823
Like-named read-outs stand apart in the source and are kept apart here.

B1: plasmin (protein)
chain: KVYLSECKTGNGKNYRGTMSKTKNGITCQKWSSTSPHRPRFSPATHPSEGLEENYCRNPDNDPQGPWCYTTDPEKRYDYCDILECEEECMHCSGENYDGKISKTMSGLECQAWDSQSPHAHGYIPSKFPNKNLKKNYCRNPDRELRPWCFTTDPNKRWELCDIPRCTTPPPSSGPTYQCLKGTGENYRGNVAVTVSGHTCQHWSAQTPHTHNRTPENFPCKNLDENYCRNPDGKRAPWCHTTNSQVRWEYCKIPSCDSSPVSTEQLAPTAPPELTPVVQDCYHGDGQSYRGTSSTTTTGKKCQSWSSMTPHRHQKTPENYPNAGLTMNYCRNPDADKGPWCFTTDPSVRWEYCNLKKCSGTEASVVAPPPVVLLPDVETPSEEDCMFGNGKGYRGKRATTVTGTPCQDWAAQEPHRHSIFTPETNPRAGLEKNYCRNPDGDVGGPWCYTTNPRKLYDYCDVPQCAAPSFDCGKPQVEPKKCPGRVVGGCVAHPHSWPWQVSLRTRFGMHFCGGTLISPEWVLTAAHCLEKSPRPSSYKVILGAHQEVNLEPHVQEIEVSRLFLEPTRKDIALLKLSSPAVITDKVIPACLPSPNYVVADRTECFITGWGETQGTFGAGLLKEAQLPVIENKVCNRYEFLNGRVQSTELCAGHLAGGTDSCQGDSGGPLVCFEKDKYILQGVTSWGLGCARPNKPGVYVRVSRFVTWIEGVMRNN

What was measured:
[1] = tested on: FVIII-R336Q/R562Q
[2] = tested on: wild-type FVIII
[3] = target: FVIII-R336Q/R562Q; remark: listed apart in the source
[4] = target: wild-type FVIII; remark: listed apart in the source

Chain of wild-type FVIII (chain, as listed by the source): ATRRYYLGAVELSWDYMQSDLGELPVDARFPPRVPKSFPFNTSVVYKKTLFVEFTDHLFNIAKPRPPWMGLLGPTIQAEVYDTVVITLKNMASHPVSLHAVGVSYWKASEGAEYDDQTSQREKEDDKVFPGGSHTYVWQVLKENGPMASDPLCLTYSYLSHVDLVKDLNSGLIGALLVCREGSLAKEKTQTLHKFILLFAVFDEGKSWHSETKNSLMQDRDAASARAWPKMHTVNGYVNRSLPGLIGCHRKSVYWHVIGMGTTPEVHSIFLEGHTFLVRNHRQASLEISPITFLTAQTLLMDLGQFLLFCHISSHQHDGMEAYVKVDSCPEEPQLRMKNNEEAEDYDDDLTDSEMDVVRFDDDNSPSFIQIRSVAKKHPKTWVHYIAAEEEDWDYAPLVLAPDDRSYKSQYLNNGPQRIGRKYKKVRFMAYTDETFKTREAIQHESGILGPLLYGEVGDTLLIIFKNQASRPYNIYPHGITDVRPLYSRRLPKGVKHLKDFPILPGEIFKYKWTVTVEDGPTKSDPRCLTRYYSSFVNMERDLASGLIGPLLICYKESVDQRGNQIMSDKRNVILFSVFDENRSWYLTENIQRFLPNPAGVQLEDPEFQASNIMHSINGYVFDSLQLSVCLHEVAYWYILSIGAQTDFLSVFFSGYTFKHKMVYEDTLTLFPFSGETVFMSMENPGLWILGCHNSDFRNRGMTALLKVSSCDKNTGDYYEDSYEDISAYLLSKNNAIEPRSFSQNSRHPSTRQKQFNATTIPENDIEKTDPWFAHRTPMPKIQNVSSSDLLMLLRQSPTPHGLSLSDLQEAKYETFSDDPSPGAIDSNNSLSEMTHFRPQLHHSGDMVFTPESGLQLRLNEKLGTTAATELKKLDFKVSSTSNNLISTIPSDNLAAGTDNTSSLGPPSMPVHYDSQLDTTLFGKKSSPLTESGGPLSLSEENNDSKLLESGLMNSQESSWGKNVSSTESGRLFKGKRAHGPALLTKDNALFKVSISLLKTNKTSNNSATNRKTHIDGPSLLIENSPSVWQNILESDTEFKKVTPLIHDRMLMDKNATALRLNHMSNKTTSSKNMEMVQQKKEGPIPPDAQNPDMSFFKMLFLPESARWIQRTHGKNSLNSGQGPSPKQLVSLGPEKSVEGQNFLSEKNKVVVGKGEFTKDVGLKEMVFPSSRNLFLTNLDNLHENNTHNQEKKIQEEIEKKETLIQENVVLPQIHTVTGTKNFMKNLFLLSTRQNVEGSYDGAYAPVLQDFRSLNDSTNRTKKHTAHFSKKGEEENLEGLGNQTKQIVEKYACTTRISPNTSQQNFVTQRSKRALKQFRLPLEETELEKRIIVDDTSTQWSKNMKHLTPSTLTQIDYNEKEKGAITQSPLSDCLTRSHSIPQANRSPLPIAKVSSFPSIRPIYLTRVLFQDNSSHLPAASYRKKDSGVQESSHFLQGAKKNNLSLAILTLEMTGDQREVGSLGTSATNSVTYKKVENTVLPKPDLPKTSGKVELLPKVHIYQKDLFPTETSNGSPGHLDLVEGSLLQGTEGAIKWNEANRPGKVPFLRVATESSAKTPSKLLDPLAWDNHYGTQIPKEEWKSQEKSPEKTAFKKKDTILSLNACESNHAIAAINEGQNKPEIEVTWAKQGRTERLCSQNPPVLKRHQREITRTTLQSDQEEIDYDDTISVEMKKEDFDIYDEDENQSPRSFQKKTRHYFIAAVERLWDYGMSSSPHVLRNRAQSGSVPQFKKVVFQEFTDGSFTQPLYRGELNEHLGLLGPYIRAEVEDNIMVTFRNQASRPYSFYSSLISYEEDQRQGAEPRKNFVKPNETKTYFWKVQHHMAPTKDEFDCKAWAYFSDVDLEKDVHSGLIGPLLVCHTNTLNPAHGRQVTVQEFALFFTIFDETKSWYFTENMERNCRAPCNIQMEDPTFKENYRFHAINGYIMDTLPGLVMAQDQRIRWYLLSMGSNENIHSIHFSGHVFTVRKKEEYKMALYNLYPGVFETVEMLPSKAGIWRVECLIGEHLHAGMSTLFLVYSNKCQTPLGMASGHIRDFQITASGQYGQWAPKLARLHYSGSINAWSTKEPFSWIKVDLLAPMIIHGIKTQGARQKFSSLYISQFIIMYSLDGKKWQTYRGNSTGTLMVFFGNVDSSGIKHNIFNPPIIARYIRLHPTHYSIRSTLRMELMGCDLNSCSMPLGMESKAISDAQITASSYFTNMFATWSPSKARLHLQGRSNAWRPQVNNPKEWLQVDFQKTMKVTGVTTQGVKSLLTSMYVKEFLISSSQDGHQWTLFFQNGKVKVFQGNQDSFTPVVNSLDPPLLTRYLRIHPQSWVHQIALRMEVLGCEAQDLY
Chain of FVIII-R336Q/R562Q (chain, as listed by the source R336Q R562Q): as the sequence (chain, as listed by the source) above, with R336Q, R562Q counted along it

| Molecule | Western Blot analysis of cleavage fragments [1] | Western Blot analysis of cleavage fragments [2] | Western blot cleavage at R372 [2] | Western Blot analysis of cleavage fragments [3] | Western Blot analysis of cleavage fragments [4] |
| --- | --- | --- | --- | --- | --- |
| FIXa | no such cleavage fragments were seen with FVIII-QQ | all serine proteases cleaved at R336 or R562 in FVIII-WT |  |  |  |
| FXa | no such cleavage fragments were seen with FVIII-QQ | all serine proteases cleaved at R336 or R562 in FVIII-WT |  |  |  |
| activated protein C | no such cleavage fragments were seen with FVIII-QQ | all serine proteases cleaved at R336 or R562 in FVIII-WT |  |  |  |
| thrombin (IIa) | no such cleavage fragments were seen with FVIII-QQ | all serine proteases cleaved at R336 or R562 in FVIII-WT | thrombin (IIa) as well as multiple serine proteases can also cleave R372 of FVIII |  |  |
| B1 |  |  |  | no such cleavage fragments were seen with FVIII-QQ | all serine proteases cleaved at R336 or R562 in FVIII-WT |
